The assay addresses trypsin. As to the kind of experiment: cell-based or functional assay.

The substance “recombinant ulinastatin polypeptide (T17); mature human ulinastatin with S10A mutation, N-linked glycan at N45 and O-linked glycan at T17 (from UniProt P02760 206-352)” registered a specific activity of the sample (units of trypsin inhibition) of 5000 U/mg.

The values are drawn from patent US20210277090A1.
